Assays:
[1] = target: T1, His-CRP (cAMP receptor protein) (Escherichia coli, UniProt P0ACJ8 1-210); experiment: EMSA
[2] = target: T1, His-CRP (cAMP receptor protein); experiment: DRaCALA
[3] = target: T1, His-CRP (cAMP receptor protein); experiment: DRaCALA; remark: listed apart in the source
[4] = target: Maltose binding protein (MBP) (UniProt P0AEX9 27-396); experiment: DRaCALA

T1 sequence (P0ACJ8 whole entry): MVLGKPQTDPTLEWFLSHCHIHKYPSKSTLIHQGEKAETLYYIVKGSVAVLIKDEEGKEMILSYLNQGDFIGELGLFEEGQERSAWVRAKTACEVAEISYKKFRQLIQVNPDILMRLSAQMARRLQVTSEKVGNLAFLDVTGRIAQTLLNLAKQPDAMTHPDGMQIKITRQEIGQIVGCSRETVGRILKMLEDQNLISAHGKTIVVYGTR

B1: ICAP oligo (vl1427/vl1428) (dsDNA)
DNA 1: GCAACGCAATAAATGTGATCTAGATCACATTTTAGGCACCC
DNA 2: GGGGTGCCTAAAATGTGATCTAGATCACATTTATTGCGTTG
Kd [1]: 0.081 nM | Kd [2]: 0.036 nM

B2: ICAP 8,10:G-C (gd132/gd133) (dsDNA)
DNA 1: AGGAGGAATAAATCTCATCTAGATGAGATTTTAGAGGAGG
DNA 2: CCTCCTCTAAAATCTCATCTAGATGAGATTTATTCCTCCT
binding result [3]: no binding

B3: ICAP 40-bp (gd126/gd127) (dsDNA)
DNA 1: AGGAGGAATAAATGTGATCTAGATCACATTTTAGAGGAGG
DNA 2: CCTCCTCTAAAATGTGATCTAGATCACATTTATTCCTCCT
binding result [4]: no binding | binding result [3]: binds

B4: ICAP 10:G-C (gd130/gd131) (dsDNA)
DNA 1: AGGAGGAATAAATGTCATCTAGATGACATTTTAGAGGAGG
DNA 2: CCTCCTCTAAAATGTCATCTAGATGACATTTATTCCTCCT
binding result [3]: no binding
